Drawing on publication PMC4977002, this text covers Kd and koff for one substance.

Common to all, as to test: SPR
Assay [1] concerns the target humanized 9C12 (h9C12), wild type, human IgG1/kappa (mouse | human).
The target of assay [2] is h9C12 L235A (mouse | human).
Assay [3] concerns the target h9C12 N434S (mouse | human).
In assay [4] the target is h9C12 P329A (mouse | human).
Assay [5] has as its target h9C12 H435A (mouse | human).
Assay [6] has as its target h9C12 N434A (mouse | human).
Assay [7] addresses h9C12 I253A (mouse | human).
Assay [8] concerns the target h9C12 H310A (mouse | human).
The target of assay [9] is h9C12 N434D (mouse | human).
Assay [10] concerns the target h9C12 H433K (mouse | human).

As a reminder, the Kd is the free concentration of one partner at which half of the binding sites on the other are occupied at equilibrium, for simple one-to-one binding. The low end stands for higher affinity, the high end for lower affinity. The term koff denotes the rate constant with which the complex falls apart. High values mean fast dissociation, low ones slow dissociation. For the substance “Recombinant human TRIM21 PRYSPRY (from UniProt P19474 287-465) (domain or fragment)”, the equilibrium dissociation constant (Kd) was 212 nM in [1]; 226 nM in assay [2]; 3600 nM in assay [3]; 220 nM in assay [4]; 5530 nM in [5]; 2000 nM in assay [6]. In addition, the Kd amounted to 565 nM in assay [7], 262 nM in assay [8], 4500 nM in assay [9] and 21500 nM in assay [10]. Besides, the koff in assay [2] is 0.062 s⁻¹; in assay [4], 0.062 s⁻¹; in assay [7], 0.177 s⁻¹; in assay [8] it was 0.086 s⁻¹.
